Experimental data as given in the supplement of paper PMC9732359.
± gives the uncertainty stated by the source.

Test: protein stability index of a GFP-peptide fusion (yeast GPS) (PSI 1-4); higher = more stable; sorted into four equal gates, so the index is relative within each strain
Conditions: ubr1∆
In short: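 Sequencing reads from sorted gates were used to score each peptide. The library consisted of tiled 17-residue yeast protein peptides fused downstream of GFP on a Cherry-expressing plasmid, pooled and carried in yeast. Mid-log cultures in leucine-free medium were split into four equal gates by GFP/Cherry ratio, and each gate's plasmids were PCR-amplified and Illumina-sequenced. The protein stability index adds up, over all gates, the read frequency multiplied by the gate number.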

Sequence	protein stability index
SIDSTSRIELELKNIGL [ECM29]	2.44 ± 0.028
SIESKLEEHKNHLDELQ [SMC1]	3 ± 0.076
SIEVQSLPEFFTNRIPS [SWI3]	2.61 ± 0.047
SIGEPGTQMTLKTFHFA [RPO31]	2.65 ± 0.17
SIGSIYQWNLDGLQQLD [RPN1]	2.96 ± 0.067
SIHVNRVERSSRSTDNF [RRI1]	3.02 ± 0.051
SILPTRDDLFVRNLQGI [NUT1]	1.56 ± 0.058
SINISCVQLIKCLVEKS [SWI1]	1.81 ± 0.045
SIRLKVPPTIAQFQYTL [RPL8A]	2.19 ± 0.035
SIRRQDYINELSNSNRF [REC8]	3.2 ± 0.12
SIYKYIHLNELLTNDES [SNF12]	2.63 ± 0.084
SKDELREKLAEVYKAEK [RPS24A]	3.56 ± 0.16
SKEDTLRLCLDIVPYFL [RPN1]	2.12 ± 0.057
SKEGQYKAKIKELENNL [YIL149C/MLP2]	3.03 ± 0.069
SKFNNADDVFTGTGLQD [RPC31]	3.17 ± 0.066
SKGYVKTQFSWQYYYYT [RPS10A]	2.92 ± 0.056
SKIFRFQNSKSASLFKQ [RPL24A]	2.1 ± 0.073
SKIIVFPRDGKAPEAEQ [RPL13B]	3.33 ± 0.052
SKKDPRILKNVSPNDNN [YMR153W/NUP53]	2.47 ± 0.034
SKLDYIFKDKEKLVSDL [SMC1]	3.37 ± 0.083
SKLKEEEAALLIKERQE [ESC2]	2.9 ± 0.054
SKLKLKNLLRKNLSIDE [ECM29]	1.76 ± 0.062
SKLMPVLKSSVYEYVIA [RPC82]	1.46 ± 0.056
SKLRNNIRSQLLSENRS [SRP54]	2.85 ± 0.049
SKNELKKAFTSYDRTLL [RPS16A]	2.91 ± 0.077
SKNMSKSPSLTAQKYPI [YMR153W/NUP53]	2.51 ± 0.043

Sequence	protein stability index
SKQNGSKFHFSWNESED [PRP28]	2.79 ± 0.046
SKQTPQPKAPRAPKVIH [ISW2]	3.14 ± 0.047
SKRRITEELSITGEKLD [SMC1]	2.01 ± 0.078
SKSKQSFTQGELNDLKW [YMR129W/POM152]	2.75 ± 0.092
SKSLQESGDTQEEDEEE [RPC82]	3.48 ± 0.12
SKTSENKVSNTVSPTQD [SIR2]	3.15 ± 0.12
SKVGSADTGRDDTKETV [RPN11]	3.04 ± 0.12
SKVVIDSIIDNIVKLCF [IRR1]	2.45 ± 0.026
SLDFLNQSFIQQKANLL [COR1]	1.65 ± 0.079
SLEDKILRMGAFRTIES [RRI1]	2.28 ± 0.073
SLFHIVVDTEETATLIM [SMC3]	2.23 ± 0.098
SLFSHRKHTRGDVSSGL [BRN1]	3.22 ± 0.059
SLGFNEVFSRPEWMILT [RPO21]	1.21 ± 0.066
SLHILMIFWNDICQIDT [SRB8]	1.92 ± 0.029
SLHRQQQQQQQQVPPLP [DLS1]	2.94 ± 0.061
SLIIDQQENSKSGKRKP [RPC31]	2.7 ± 0.092
SLIKETNQLVLLQKMLN [YML103C/NUP188]	1.02 ± 0.077
SLKGLQSKLKDVVEYLD [RPN8]	2.48 ± 0.048
SLLASKSTYRTPNFDDV [RIP1]	3.49 ± 0.17
SLNEKNALHTERLHELK [SMC1]	2.81 ± 0.054
SLNTKKNEKLILEESLN [SMC3]	2.6 ± 0.078
SLPRFSKPVLIVGQKNL [DIS3]	1.7 ± 0.12
SLQQMQHLQQLKMQQQQ [GAL11]	1.41 ± 0.08
SLQYIERQQDELENFLD [YJL041W/NSP1]	3.12 ± 0.054
SLRRQVKKLEIQQHARY [RPL43A]	3.29 ± 0.09
SLTEKFSQTVADNNDLQ [ECM29]	2.35 ± 0.048

Sequence	protein stability index
SLTQSVCDLALRFGEGA [PUP2]	3.11 ± 0.21
SLYIFFTTLLESKQDGL [YML103C/NUP188]	1.19 ± 0.036
SMFLRIDYSNSQIRLYA [RGR1]	2.44 ± 0.043
SMLFKTSQKMTSTVNRL [MCD1]	3.04 ± 0.14
SMNATMRNFSKQNQDSK [YDL088C/ASM4]	2.84 ± 0.24
SMVYSNVGELIEKNVME [RRP4]	2.03 ± 0.048
SNDERIVKRLYEYGAVS [BRR2]	3.14 ± 0.049
SNDPDVNNTRRRVYNRV [BRN1]	3.69 ± 0.24
SNDRVNPLIELTPIQKK [ITC1]	2.65 ± 0.11
SNDVLKPETPKGPIIIS [SIR2]	2.7 ± 0.077
SNGEFIPHIFYSLHQIR [CSE2]	2.34 ± 0.057
SNILLNSLTKYPDLKAF [MED1]	1.71 ± 0.094
SNININVNNNNIGQQQV [SWI1]	3.13 ± 0.21
SNKILVYESEMEQCKQR [YIL149C/MLP2]	3.16 ± 0.26
SNKPCMGIVQDTLCGIR [RPO21]	1.77 ± 0.088
SNLKISLVKYPELLDSL [SWI1]	2.96 ± 0.056
SNNTAATADTTHLHEAL [NUT1]	3.02 ± 0.042
SNSSSSPPIIDLFSNNN [MED1]	2.9 ± 0.042
SNTIDELSTDIILKTRQ [SRB7]	3.03 ± 0.063
SNTSTSKMLDAASSQVS [SNF12]	2.83 ± 0.051
SNVLDGNKNQFEPSISR [LRP1]	3.36 ± 0.091
SPAVKKLLQLAGVEDVY [RPS2]	2.05 ± 0.2
SPEESKARSPGIAKPNA [SIR4]	3.38 ± 0.066
SPLNTTTKILGDKILGN [YML103C/NUP188]	2.12 ± 0.028
SPPIIDLFSNNNYNSRI [MED1]	2.94 ± 0.056
